Patent CN101123983A (MEDIMMUNE INC, dated 2008)
Residue numbers refer to the chain shown, from its start.

B1: 6B7 (Fab, V domains shown)
VH: QVQLLQSGAEVKKPGASVKVPCKASGYTFTSRAMSWVRQAPGQGLEWMGWINTNTGNPTYAQGFTGRFVFSLDTSVSTAYLQISSLKAEDTAVYYCARVRFTVYGDGMDVWGQGTLVTVSS
VL: EIVLTQSPATLSVSPGERATLSCRASQSVSSNPAWYQQKPGQAPRLLIYGASTRATGIPDRFSASGSGTDFTLTISRVEPEDFAVYYCQQYGPSWTFGQGTKVEIK
B2: 3C6 (Fab, V domains shown)
VH: B1 VH with F101L
VL: B1 VL with A34P, P93S
B3: 1B10 (Fab, V domains shown)
VH: B1 VH
VL: B1 VL with R54W
B4: 1A4 (Fab, V domains shown)
VH: B1 VH with F64S
VL: B1 VL
B5: 1G11 (Fab, V domains shown)
VH: B1 VH
VL: B1 VL with P33L, A34P, A55P
B6: 3A12 (Fab, V domains shown)
VH: B1 VH
VL: B1 VL with P33L, R54W
B7: 1D11 (Fab, V domains shown)
VH: B1 VH with F101T, G107N
VL: B1 VL with P33L, A34P
B8: 11H1 (Fab, V domains shown)
VH: B1 VH with R32Y, F101L
VL: B1 VL with P33L, P93S
notes: Fab with human gamma1 CH1 and human kappa constant domain; also called GEA44衍生物11H1

What follows are binders tested against T1, 人EphA4-His融合蛋白 (human EphA4 extracellular domain fused to a histidine tag) (human, UniProt P54764 20-547) (assay: secondary screen of combination variant Fabs: activity ELISA on coated human EphA4-His, normalised by Fab quantitation ELISA).
T1 construct: also called rhuEphA4-His; not shown: histidine tag
T1 sequence (P54764 20-547): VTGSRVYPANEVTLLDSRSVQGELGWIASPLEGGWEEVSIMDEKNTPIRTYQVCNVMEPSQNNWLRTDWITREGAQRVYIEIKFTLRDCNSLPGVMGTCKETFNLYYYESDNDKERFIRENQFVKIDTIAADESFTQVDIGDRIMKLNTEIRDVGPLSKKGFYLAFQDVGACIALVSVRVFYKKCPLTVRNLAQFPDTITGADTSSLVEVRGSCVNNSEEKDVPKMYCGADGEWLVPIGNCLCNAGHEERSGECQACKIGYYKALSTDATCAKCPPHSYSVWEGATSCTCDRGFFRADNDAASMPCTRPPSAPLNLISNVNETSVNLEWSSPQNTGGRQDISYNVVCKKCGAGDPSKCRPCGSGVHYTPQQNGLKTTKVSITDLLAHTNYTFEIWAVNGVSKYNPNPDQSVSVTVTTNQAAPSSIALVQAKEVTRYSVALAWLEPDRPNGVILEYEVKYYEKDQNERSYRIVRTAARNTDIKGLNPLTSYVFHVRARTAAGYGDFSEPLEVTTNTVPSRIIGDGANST

Row | Binder | binding result
1 | B1 | binds
2 | B2 | binds
3 | B3 | binds
4 | B4 | binds
5 | B5 | binds
6 | B6 | binds
7 | B7 | binds

The binders below were run against T1, 人EphA4-His融合蛋白 (human EphA4 …) (assay: secondary screen: activity ELISA on coated human EphA4-His, normalised by Fab quantitation ELISA, against parent Fab20).

Row | Binder | binding result
8 | B8 | binds
